Test results reported in patent publication US20110263454A1, “Methods of Identifying Functional Characteristics of Promoters, Transcription Modifying Proteins and Transcription Modulating Agents” (Salk Institute for Biological Studies, priority 2008, published 2011).

B1: PR: Progesterone Receptor (NR3C3), cDNA driver (protein, UniProt P06401 1-933, looked up)
Progesterone receptor: MTELKAKGPRAPHVAGGPPSPEVGSPLLCRPAAGPFPGSQTSDTLPEVSAIPISLDGLLFPRPCQGQDPSDEKTQDQQSLSDVEGAYSRAEATRGAGGSSSSPPEKDSGLLDSVLDTLLAPSGPGQSQPSPPACEVTSSWCLFGPELPEDPPAAPATQRVLSPLMSRSGCKVGDSSGTAAAHKVLPRGLSPARQLLLPASESPHWSGAPVKPSPQAAAVEVEEEDGSESEESAGPLLKGKPRALGGAAAGGGAAAVPPGAAAGGVALVPKEDSRFSAPRVALVEQDAPMAPGRSPLATTVMDFIHVPILPLNHALLAARTRQLLEDESYDGGAGAASAFAPPRSSPCASSTPVAVGDFPDCAYPPDAEPKDDAYPLYSDFQPPALKIKEEEEGAEASARSPRSYLVAGANPAAFPDFPLGPPPPLPPRATPSRPGEAAVTAAPASASVSSASSSGSTLECILYKAEGAPPQQGPFAPPPCKAPGASGCLLPRDGLPSTSASAAAAGAAPALYPALGLNGLPQLGYQAAVLKEGLPQVYPPYLNYLRPDSEASQSPQYSFESLPQKICLICGDEASGCHYGVLTCGSCKVFFKRAMEGQHNYLCAGRNDCIVDKIRRKNCPACRLRKCCQAGMVLGGRKFKKFNKVRVVRALDAVALPQPVGVPNESQALSQRFTFSPGQDIQLIPPLINLLMSIEPDVIYAGHDNTKPDTSSSLLTSLNQLGERQLLSVVKWSKSLPGFRNLHIDDQITLIQYSWMSLMVFGLGWRSYKHVSGQMLYFAPDLILNEQRMKESSFYSLCLTMWQIPQEFVKLQVSQEEFLCMKVLLLLNTIPLEGLRSQTQFEEMRSSYIRELIKAIGLRQKGVVSSSQRFYQLTKLLDNLHDLVKQLHLYCLNTFIQSRALSVEFPEMMSEVIAAQLPKILAGMVKPLLFHKK
B2: NR4a3: NR4a3 (NR4A3; NOR1), nuclear hormone receptor cDNA driver (protein, UniProt Q92570 1-626, looked up)
Nuclear receptor subfamily 4 …: MPCVQAQYSPSPPGSSYAAQTYSSEYTTEIMNPDYTKLTMDLGSTEITATATTSLPSISTFVEGYSSNYELKPSCVYQMQRPLIKVEEGRAPSYHHHHHHHHHHHHHHQQQHQQPSIPPASSPEDEVLPSTSMYFKQSPPSTPTTPAFPPQAGALWDEALPSAPGCIAPGPLLDPPMKAVPTVAGARFPLFHFKPSPPHPPAPSPAGGHHLGYDPTAAAALSLPLGAAAAAGSQAAALESHPYGLPLAKRAAPLAFPPLGLTPSPTASSLLGESPSLPSPPSRSSSSGEGTCAVCGDNAACQHYGVRTCEGCKGFFKRTVQKNAKYVCLANKNCPVDKRRRNRCQYCRFQKCLSVGMVKEVVRTDSLKGRRGRLPSKPKSPLQQEPSQPSPPSPPICMMNALVRALTDSTPRDLDYSRYCPTDQAAAGTDAEHVQQFYNLLTASIDVSRSWAEKIPGFTDLPKEDQTLLIESAFLELFVLRLSIRSNTAEDKFVFCNGLVLHRLQCLRGFGEWLDSIKDFSLNLQSLNLDIQALACLSALSMITERHGLKEPKRVEELCNKITSSLKDHQSKGQALEPTESKVLGALVELRKICTLGLQRIFYLKLEDLVSPPSIIDKLFLDTLPF
B3: hMR: Mineralocorticoid Receptor (NR3C2, MR), cDNA driver (protein, UniProt P08235 1-984, looked up)
Mineralocorticoid receptor: METKGYHSLPEGLDMERRWGQVSQAVERSSLGPTERTDENNYMEIVNVSCVSGAIPNNSTQGSSKEKQELLPCLQQDNNRPGILTSDIKTELESKELSATVAESMGLYMDSVRDADYSYEQQNQQGSMSPAKIYQNVEQLVKFYKGNGHRPSTLSCVNTPLRSFMSDSGSSVNGGVMRAVVKSPIMCHEKSPSVCSPLNMTSSVCSPAGINSVSSTTASFGSFPVHSPITQGTPLTCSPNVENRGSRSHSPAHASNVGSPLSSPLSSMKSSISSPPSHCSVKSPVSSPNNVTLRSSVSSPANINNSRCSVSSPSNTNNRSTLSSPAASTVGSICSPVNNAFSYTASGTSAGSSTLRDVVPSPDTQEKGAQEVPFPKTEEVESAISNGVTGQLNIVQYIKPEPDGAFSSSCLGGNSKINSDSSFSVPIKQESTKHSCSGTSFKGNPTVNPFPFMDGSYFSFMDDKDYYSLSGILGPPVPGFDGNCEGSGFPVGIKQEPDDGSYYPEASIPSSAIVGVNSGGQSFHYRIGAQGTISLSRSARDQSFQHLSSFPPVNTLVESWKSHGDLSSRRSDGYPVLEYIPENVSSSTLRSVSTGSSRPSKICLVCGDEASGCHYGVVTCGSCKVFFKRAVEGQHNYLCAGRNDCIIDKIRRKNCPACRLQKCLQAGMNLGARKSKKLGKLKGIHEEQPQQQQPPPPPPPPQSPEEGTTYIAPAKEPSVNTALVPQLSTISRALTPSPVMVLENIEPEIVYAGYDSSKPDTAENLLSTLNRLAGKQMIQVVKWAKVLPGFKNLPLEDQITLIQYSWMCLSSFALSWRSYKHTNSQFLYFAPDLVFNEEKMHQSAMYELCQGMHQISLQFVRLQLTFEEYTIMKVLLLLSTIPKDGLKSQAAFEEMRTNYIKELRKMVTKCPNNSGQSWQRFYQLTKLLDSMHDLVSDLLEFCFYTFRESHALKVEFPAMLVEIISDQLPKVESGNAKPLYFHRK
B4: NR4a2: NR4a2 (NR4A2; NURR1), nuclear hormone receptor cDNA driver (protein, UniProt P43354 1-598, looked up)
Nuclear receptor subfamily 4 …: MPCVQAQYGSSPQGASPASQSYSYHSSGEYSSDFLTPEFVKFSMDLTNTEITATTSLPSFSTFMDNYSTGYDVKPPCLYQMPLSGQQSSIKVEDIQMHNYQQHSHLPPQSEEMMPHSGSVYYKPSSPPTPTTPGFQVQHSPMWDDPGSLHNFHQNYVATTHMIEQRKTPVSRLSLFSFKQSPPGTPVSSCQMRFDGPLHVPMNPEPAGSHHVVDGQTFAVPNPIRKPASMGFPGLQIGHASQLLDTQVPSPPSRGSPSNEGLCAVCGDNAACQHYGVRTCEGCKGFFKRTVQKNAKYVCLANKNCPVDKRRRNRCQYCRFQKCLAVGMVKEVVRTDSLKGRRGRLPSKPKSPQEPSPPSPPVSLISALVRAHVDSNPAMTSLDYSRFQANPDYQMSGDDTQHIQQFYDLLTGSMEIIRGWAEKIPGFADLPKADQDLLFESAFLELFVLRLAYRSNPVEGKLIFCNGVVLHRLQCVRGFGEWIDSIVEFSSNLQNMNIDISAFSCIAALAMVTERHGLKEPKRVEELQNKIVNCLKDHVTFNNGGLNRPNYLSKLLGKLPELRTLCTQGLQRIFYLKLEDLVPPPAIIDKLFLDTLPF

system: mPOMC promoter; assay: NHR-promoter luciferase screen, mPOMC promoter; format: cell-based, mouse; settings: Table 6d; luciferase activity relative to control (control = 1.00)
In short: (§1)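 CV-1 cells were co-transfected with 50 ng NHR (homodimer or NHR/RXR heterodimer), 100 ng promoter-luciferase construct and 50 ng LacZ. Luciferase was normalized to LacZ and to a no-NHR/no-ligand control.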

Molecule | Results of assays of transcription factor (+/- ligand) with mPOMC
B1 | 1.10
B2 | 0.87
B3 | 0.73
B4 | 1.05

same assay, conditions: mPOMC promoter; HR component with or without ligand

Molecule | Luc. act., normalized to lacZ
B1 | 75.8
B2 | 59.7
B3 | 50.3
B4 | 72.2

same assay, conditions: mPOMC promoter; HR component with or without ligand; relative to control

Molecule | Normalized Luc. act., normalized to control
B1 | 1.1
B2 | 0.9
B3 | 0.7
B4 | 1.0

system: mDio1 promoter; assay: NHR-promoter luciferase screen, mDio1 promoter; format: cell-based, mouse; settings: Dio1; HR component without or with its ligand
In short: as §1

Molecule | Luc. act., normalized to lacZ | Normalized Luc. act., normalized to control
B1 | 7.8 | 1.8
B2 | 6.6 | 1.5
B3 | 2.4 | 0.5
B4 | 6.3 | 1.4

same assay, conditions: transcription factor +/- ligand; control = 1.00

Molecule | mDio1 promoter reporter activity
B1 | 1.75
B2 | 1.48
B3 | 0.55
B4 | 1.41

system: mAdiponectin promoter; assay: NHR-promoter luciferase screen, mAdiponectin promoter; format: cell-based, mouse; settings: Adiponectin; HR component without or with its ligand
In short: as §1

Molecule | Luc. act., normalized to lacZ | Normalized Luc. act., normalized to control
B1 | 52.9 | 0.8
B2 | 35.7 | 0.6
B3 | 32.3 | 0.5
B4 | 35.8 | 0.6

same assay, conditions: transcription factor +/- ligand; control = 1.00

Molecule | mAdiponectin promoter reporter activity
B1 | 0.84
B2 | 0.57
B3 | 0.51
B4 | 0.57

system: hTNFa promoter; assay: NHR-promoter luciferase screen, hTNFa promoter; format: cell-based, human; settings: TNFa promoter; HR component without or with ligand
In short: as §1

Molecule | Luc. act., normalized to lacZ | Normalized Luc. act., normalized to control
B1 | 1214.8 | 1.2
B2 | 691.0 | 0.7
B3 | 614.3 | 0.6
B4 | 735.5 | 0.7

same assay, conditions: transcription factor +/- ligand; control = 1.00

Molecule | hTNFa promoter reporter activity
B1 | 1.24
B2 | 0.70
B3 | 0.62
B4 | 0.75

system: mPgc1b promoter; assay: NHR-promoter luciferase screen, mPgc1b promoter; format: cell-based, mouse; settings: PGC1b promoter reporter; co-transfected HR, without or with its ligand
In short: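 Luciferase reporter read-out after co-expression in CV-1 cells of V5H6-tagged receptor (alone or with RXR), the promoter construct and LacZ. Values are luciferase/LacZ relative to a control lacking NHR or ligand; orphan receptors tested ligand-free.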

Molecule | Luc. act., normalized to lacZ
B1 | 8.9
B2 | 9.2
B3 | 5.7
B4 | 9.0

same assay, conditions: PGC1b promoter reporter; co-transfected HR, without or with its ligand; relative to control

Molecule | Normalized Luc. act., normalized to control
B1 | 0.7
B2 | 0.8
B3 | 0.5
B4 | 0.8

same assay, conditions: mPgc1b promoter-luciferase, CV-1 cells, NHR +/- ligand, control = 1.00

Molecule | luciferase activity normalized to lacZ activity and to a control, mPgc1b
B1 | 0.75
B2 | 0.77
B3 | 0.48
B4 | 0.76

system: hIFNg promoter; assay: NHR-promoter luciferase screen, hIFNg promoter; format: cell-based, human; settings: IFNg promoter; HR component without or with ligand
In short: as §1

Molecule | Luc. act., normalized to lacZ | Normalized Luc. act., normalized to control
B1 | 22.6 | 1.4
B2 | 16.4 | 1.0
B3 | 10.4 | 0.7
B4 | 24.3 | 1.5

same assay, conditions: transcription factor +/- ligand; control = 1.00

Molecule | hIFNg promoter reporter activity
B1 | 1.42
B2 | 1.03
B3 | 0.65
B4 | 1.53
